The results in this text go back to PMC13022382 (Nature Communications, 2026).

Primed or numbered codes have the meaning given here. No end group written: not given here. *: point of attachment. TMR‑6COOH = tetramethylrhodamine, CN(C)c1ccc2c(-c3cc(C(=O)*)ccc3C(=O)[O-])c3ccc(N(C)C)cc3[o+]c2c1; Biotin = O=C1N[C@H]2[C@H](CS[C@H]2CCCCC(=O)*)N1; PEG2′ = Fmoc-PEG2-OH spacer; PEG4′ = not defined here

For one experiment, the target named is T1, TMR-Hpep9 conjugate.
T1 peptide: {TMR‑6COOH-PEG2′}-RGWSWREMFRLFRT
As to the kind of experiment: fluorescence polarisation. Background: Fluorescence polarisation rises when a labelled molecule tumbles more slowly, as on binding a larger partner.

The target of the next experiment is T2, TMR-Hpep11 conjugate.
T2 peptide: {TMR‑6COOH-PEG2′}-SKRDWREMFRLFRT
Put plainly: fluorescence polarisation.

A further experiment has as its target T3, biotin-Hpep9 conjugate.
T3 chain: {Biotin-PEG4′}-RGWSWREMFRLFRT
As to the kind of experiment: BLI. For orientation: In BLI a coated tip is dipped into the sample, and binding shifts an interference pattern.

In another experiment the target is T4, biotin-Hpep11 conjugate.
T4 chain: {Biotin-PEG4′}-SKRDWREMFRLFRT
As to the kind of experiment: BLI.

The term Kd denotes the free concentration of one partner at which half of the binding sites on the other are occupied at equilibrium, for simple one-to-one binding. Lower therefore signals tighter binding. What is called koff is a measure of how fast the partners let go of each other. The kon is a measure of how fast the partners come together. High values mean fast association, low ones slow association.

B1: cpHaloΔ2 (His10-tagged) (domain or fragment)
chain: DVGRKLIIDQNVFIEGTLPMGVVRPLTEEEMDHYREPFLNPKDREPLWRFPNELPIAGEPANIVALVEEYMDWLHQSPVPKLLFWGTPGVLIPPAEAARLAKSLPNCKAVDIGPGLNLLQEDNPDLIGSEIARWLSTLEIKSKYDRDQILKIIAELEKKTGGSIGTGFPFDPHYVEVLGSRMHYVDVGPRDGTPVLFLHGNPTSSYVWRNIIPHVAPTHRCIAPDLIGMGKSDKPDLGYFFDDHVRFMDAFIEALGLEEVVLVIHDWGSALGFHWAKRHPERVKGIAFMEFIRPIPTWDEW
As for B1, the Kd with TMR-Hpep9 conjugate amounted to 26.3 nM; in the experiment with TMR-Hpep11 conjugate, 38.3 nM.

B2: TMR-labeled cpHaloΔ3 (domain or fragment)
chain: EKKGDVGRKLIIDQNVFIEGTLPMGVVRPLTEEEMDHYREPFLNPKDREPLWRFPNELPIAGEPANIVALVEEYMDWLHQSPVPKLLFWGTPGVLIPPAEAARLAKSLPNCKAVDIGPGLNLLQEDNPDLIGSEIARWLSTLEIKSKYDRDQILKIIAELEKKTGGSIGTGFPFDPHYVEVLGSRMHYVDVGPRDGTPVLFLHGNPTSSYVWRNIIPHVAPTHRCIAPDLIGMGKSDKPDLGYFFDDHVRFMDAFIEALGLEEVVLVIHDWGSALGFHWAKRHPERVKGIAFMEFIRPIPTWDEWGDVE
modifications: labeled with the HaloTag ligand CA-TMR (chloroalkane derivative of tetramethylrhodamine)
In the experiment with biotin-Hpep9 conjugate, B2 came in with a Kd of 4.86 nM, a koff of 0.00104 s⁻¹ and a kon of 214000 M⁻¹ s⁻¹. In the experiment with biotin-Hpep11 conjugate, this molecule displayed a Kd of 10.6 nM, a koff of 0.000687 s⁻¹ and a kon of 64900 M⁻¹ s⁻¹.

B3: SiR-labeled cpHaloΔ3 (domain or fragment)
chain: EKKGDVGRKLIIDQNVFIEGTLPMGVVRPLTEEEMDHYREPFLNPKDREPLWRFPNELPIAGEPANIVALVEEYMDWLHQSPVPKLLFWGTPGVLIPPAEAARLAKSLPNCKAVDIGPGLNLLQEDNPDLIGSEIARWLSTLEIKSKYDRDQILKIIAELEKKTGGSIGTGFPFDPHYVEVLGSRMHYVDVGPRDGTPVLFLHGNPTSSYVWRNIIPHVAPTHRCIAPDLIGMGKSDKPDLGYFFDDHVRFMDAFIEALGLEEVVLVIHDWGSALGFHWAKRHPERVKGIAFMEFIRPIPTWDEWGDVE
modifications: labeled with the HaloTag ligand CA-SiR (chloroalkane derivative of silicon rhodamine)
On to B3, for which the Kd with biotin-Hpep9 conjugate turned out to be 18.8 nM; with TMR-Hpep9 conjugate, 3.26 nM; with TMR-Hpep11 conjugate it was 1.34 nM. For the same molecule, in the experiment with biotin-Hpep9 conjugate, the koff stood at 0.00149 s⁻¹. In addition, the kon with biotin-Hpep9 conjugate is 78900 M⁻¹ s⁻¹; with biotin-Hpep11 conjugate, 50000 M⁻¹ s⁻¹.
